In patent US7655771B1, “Polymorphisms in the human cyp3a4 and cyp3a7 genes and their use in diagnostic and therapeutic applications” (PGx Health, LLC, priority 1999, dated 2010):
Where “and” joins values, the source holds several entries; their conditions need not be identical. Identical values can stand only once. Marks after values point to notes of the source that are not given here.

Key:
CYP3A4 holoenzyme = experiment: Expression of CYP3A4 holoenzyme in E. coli, reduced CO difference spectra; design: species or system human
Description: (§1) Mutants were expressed in E. coli TOPP3 cells. Cultures of each strain were started from single colonies in 2-ml of LB media containing ampicillin (50 μg/ml) and tetracycline (15 μg/ml) and grown overnight at 37° C. with shaking. Larger, 20-ml cultures of each sample were inoculated and grown as described for the 2-ml cultures. Starter cultures (15 ml) were inoculated into 250-ml of TB media containing ampicillin (50 μg/ml) and grown 2-3 hr at 37° C. at 250 rpm. δ-aminolevulinic acid (80 mg/L) and IPTG (1 mM) were added and the cultures grown 72 hr at 30° C. at 190 rpm. The cells were harvested, sonicated and CHAPS solubilized, and the protein was purified on Talon Metal Affinity resin from Clontech (Palo Alto, Calif.). Final P450 content was measured by reduced CO difference spectra (Omura, J Biol Chem 239 (1964), 2370-2378), and each protein was visualized on an 8.5% SDS PAGE gel stained with Coomassie blue. Western Blot analysis of CYP3A4 wild-type, M2, M5 and M7 was performed by resolving 1 pmol of 3A4 wildtype and M5, and 8 μl of M2 and M7 total protein sample on an 8.5% SDS PAGE gel. The samples were then transferred to nitrocellulose and probed with an anti-3A12 polyclonal antibody known to cross-react with CYP3A4 (Ciaccio, Arch Biochem Biophys 271 (1989), 284-99).
The effect of the protein variants on the expression level and catalytical activity of CYP3A4 was investigated using a bacterial CYP3A4 expression system. Sequence variants were introduced into the pSE3A4H expression vector (Harlow, J Biol Chem 272 (1997), 5396-402) which encodes for a CYP3A4 protein identical to that found in most Caucasians. No other, unwanted mutations were introduced into the CYP3A4 insert or the promoter driving its expression as confirmed by sequencing. Mutants M1-M8 were expressed in E. coli as described in Example 5, the expression of the CYP3A4 holoenzyme assessed by measuring reduced CO difference spectra, and the protein purified. All but M2, M5 and M7 mutants were detectable at levels similar to CYP3A4. […] The expression of M2, M5, and M7 was further investigated by Western Blotting using an anti-CYP3A12 polyclonal antibody known to cross-react with CYP3A4 (Ciaccio, Arch Biochem Biophys 271 (1989), 284-99) as described in Example 5.

CYP3A4 [1] = experiment: Western blot with anti-CYP3A12 polyclonal antibody; design: species or system human
Description: FIG. 7: Immunoblot of wild-type CYP3A4 (3A4), R130Q (M2), T363M (M5), and P416L (M7). P450 (1 pmol) was loaded into each lane, transferred to nitrocellulose, and probed with anti-3A12 IgG as described in Materials and Methods.
as §1
The effect of the protein variants on the expression level and catalytical activity of CYP3A4 was investigated using a bacterial CYP3A4 expression system. Sequence variants were introduced into the pSE3A4H expression vector (Harlow, J Biol Chem 272 (1997), 5396-402) which encodes for a CYP3A4 protein identical to that found in most Caucasians. […] Mutants M1-M8 were expressed in E. coli as described in Example 5, the expression of the CYP3A4 holoenzyme assessed by measuring reduced CO difference spectra, and the protein purified. […]

CYP3A4 [2] = experiment: Testosterone hydroxylase activity of wild-type and mutant CYP3A4 proteins (reconstituted with NADPH-cytochrome P450 reductase and cytochrome b5); format: biochemical, human; settings: for Testosterone hydroxylase activity relative to wild-type CYP3A4: 25 μM testosterone (lower steroid concentration)
Description: as §1
(§2) Following the reconstitution with NADPH-cytochrome P450 reductase and cytochrome b5, the catalytical activities of M1, M4, M5 and M6 variants were measured using testosterone, progesterone and 7-BFC as substrates (Tables 5-7).

CYP3A4 [3] = experiment: Progesterone hydroxylase activity of wild-type and mutant CYP3A4 proteins; format: biochemical, human
Description: as §1, §2

CYP3A4 [4] = experiment: 7-Benzyloxy-4-(trifluoromethyl)coumarin (7-BFC) debenzylase activity of wild-type and mutant CYP3A4 proteins; format: biochemical, human; settings: for 7-BFC debenzylase activity, 7-hydroxy-4-(trifluoromethyl)coumarin: substrate 7-BFC
Description: as §1, §2

CYP3A4 [5] = molecular target: T1, CYP3A4 (Homo sapiens, UniProt P08684, D174H); experiment: Progesterone hydroxylase activity of wild-type and mutant CYP3A4 proteins; format: biochemical; settings: lower steroid concentration
T1 construct: made in house; host or cells: E. coli TOPP3
T1 sequence (P08684 2-503 D174H): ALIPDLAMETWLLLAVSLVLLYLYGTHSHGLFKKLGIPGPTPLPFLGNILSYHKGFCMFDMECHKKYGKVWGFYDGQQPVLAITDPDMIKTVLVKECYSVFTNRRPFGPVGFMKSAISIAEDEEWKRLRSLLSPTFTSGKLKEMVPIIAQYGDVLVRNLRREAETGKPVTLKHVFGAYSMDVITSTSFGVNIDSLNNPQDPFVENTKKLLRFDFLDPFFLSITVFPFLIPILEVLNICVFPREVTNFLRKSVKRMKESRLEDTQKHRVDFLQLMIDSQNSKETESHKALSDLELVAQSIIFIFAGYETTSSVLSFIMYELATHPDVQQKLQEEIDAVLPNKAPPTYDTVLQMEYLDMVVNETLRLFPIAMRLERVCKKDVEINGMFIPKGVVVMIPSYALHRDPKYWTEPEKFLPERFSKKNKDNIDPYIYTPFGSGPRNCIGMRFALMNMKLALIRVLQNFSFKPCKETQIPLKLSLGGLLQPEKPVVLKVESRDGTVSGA
Description: as §1, §2

CYP3A4 [6] = molecular target: T2, CYP3A4 (Homo sapiens, UniProt P08684, T363M); experiment: Testosterone hydroxylase activity of wild-type and mutant CYP3A4 proteins (reconstituted with NADPH-cytochrome P450 reductase and cytochrome b5); format: biochemical; settings: Table 5
T2 construct: made in house; host or cells: E. coli TOPP3
T2 sequence (P08684 2-503 T363M): as the sequence (P08684 2-503 D174H) above, with H173D, T362M counted along it
Description: as §1, §2

CYP3A4 [7] = molecular target: T2, CYP3A4; experiment: Progesterone hydroxylase activity of wild-type and mutant CYP3A4 proteins; format: biochemical; settings: Table 6
Description: as §1, §2

CYP3A4 [8] = molecular target: T2, CYP3A4; experiment: 7-Benzyloxy-4-(trifluoromethyl)coumarin (7-BFC) debenzylase activity of wild-type and mutant CYP3A4 proteins; format: biochemical; settings: Table 7
Description: as §1, §2

[9] = E. coli expression, reduced CO difference spectra

Substance	Effect of mutation on expression of CYP3A4 holoenzyme (conclusion) (CYP3A4 holoenzyme)	Band in immunoblot (CYP3A4 [1])	Testosterone hydroxylase activity, 2β-OH (CYP3A4 [2]; 25 μM testosterone)	Testosterone hydroxylase activity, 6β-OH (CYP3A4 [2]; 25 μM testosterone)	Testosterone hydroxylase activity, 15β-OH (CYP3A4 [2]; 25 μM testosterone)	Testosterone hydroxylase activity, 2β-OH (CYP3A4 [2]; 400 μM testosterone)	Testosterone hydroxylase activity, 6β-OH (CYP3A4 [2]; 400 μM testosterone)	Testosterone hydroxylase activity, 15β-OH (CYP3A4 [2]; 400 μM testosterone)	Progesterone hydroxylase 6β/16α ratio (CYP3A4 [3]; 25 μM progesterone)	Progesterone hydroxylase activity, 6β-OH (CYP3A4 [3]; 25 μM progesterone)	Progesterone hydroxylase activity, 16α-OH (CYP3A4 [3]; 25 μM progesterone)	Progesterone hydroxylase 6β/16α ratio (CYP3A4 [3]; 150 μM progesterone)	Progesterone hydroxylase activity, 6β-OH (CYP3A4 [3]; 150 μM progesterone)	Progesterone hydroxylase activity, 16α-OH (CYP3A4 [3]; 150 μM progesterone)	7-BFC debenzylase activity, 7-hydroxy-4-(trifluoromethyl)coumarin (CYP3A4 [4])	Testosterone hydroxylase metabolite profile compared with wild-type CYP3A4 (CYP3A4 [2])	further results
M2: CYP3A4 protein variant R130Q (g.13908G>A, exon 5) [Mutant M2]	abolish	Bands of the expected size	–	–	–	–	–	–	–	–	–	–	–	–	–	–	Detectable P450 holoprotein, in words (CYP3A4 holoenzyme; [9]): no detectable P450 holoprotein
M7: CYP3A4 protein variant P416L (g.22026C>T, exon 11) [Mutant M7]	abolish	Only a very faint band	–	–	–	–	–	–	–	–	–	–	–	–	–	–	Detectable P450 holoprotein, in words (CYP3A4 holoenzyme; [9]): no detectable P450 holoprotein
WT: wild-type CYP3A4 protein encoded by pSE3A4H vector, identical to that found in most Caucasians, expressed in E. coli [reference compound]	–	Bands of the expected size	0.2 nmol product/min/nmol protein	9.3^a nmol product/min/nmol protein	0.4 nmol product/min/nmol protein	3.0 nmol product/min/nmol protein	41.6^a nmol product/min/nmol protein	1.2 nmol product/min/nmol protein	7.1	12.1^a nmol product/min/nmol protein	1.7 nmol product/min/nmol protein	5.0	32.1^a nmol product/min/nmol protein	6.4 nmol product/min/nmol protein	6.5^a nmol product/min/nmol protein	–	–
M4: CYP3A4 protein variant D174H (g.14304G>C, exon 6) [Mutant M4]	–	–	<0.1, <0.1 nmol product/min/nmol protein	4.4 nmol product/min/nmol protein and 3.9 nmol product/min/nmol protein	0.1, 0.1 nmol product/min/nmol protein	5.3 nmol product/min/nmol protein and 5.6 nmol product/min/nmol protein	32.4 nmol product/min/nmol protein and 29.8 nmol product/min/nmol protein	1.3 nmol product/min/nmol protein and 0.9 nmol product/min/nmol protein	–	5.5 nmol product/min/nmol protein and 5.4 nmol product/min/nmol protein	0.5, 0.5 nmol product/min/nmol protein	5.5 and 5.9	21.4 nmol product/min/nmol protein and 18.4 nmol product/min/nmol protein	3.9 nmol product/min/nmol protein and 3.1 nmol product/min/nmol protein	2.3 nmol product/min/nmol protein and 1.9 nmol product/min/nmol protein	Neither M1 nor M4 mutant displayed alterations	Testosterone hydroxylase activity relative to wild-type CYP3A4 (CYP3A4 [2]): < 50%; Progesterone hydroxylase activity relative to wild-type CYP3A4 (CYP3A4 [5]): < 50%; Progesterone (steroid) hydroxylase metabolite profile compared with wild-type CYP3A4 (CYP3A4 [3]): Neither M1 nor M4 mutant displayed alterations; 7-BFC debenzylase activity relative to CYP3A4 (CYP3A4 [4]): < 50%
M6: CYP3A4 protein variant L373F (g.21896C>T, exon 11) [Mutant M6]	–	–	3.5 nmol product/min/nmol protein and 2.8 nmol product/min/nmol protein	10.1 nmol product/min/nmol protein and 8.6 nmol product/min/nmol protein	1.7 nmol product/min/nmol protein and 1.3 nmol product/min/nmol protein	29.2, nmol product/min/nmol protein and 36.3 nmol product/min/nmol protein	45.3 nmol product/min/nmol protein and 58.8 nmol product/min/nmol protein	5.9 nmol product/min/nmol protein and 7.7 nmol product/min/nmol protein	7.5 and 7.7	15.8, nmol product/min/nmol protein and 12.3 nmol product/min/nmol protein	2.1 nmol product/min/nmol protein and 1.6 nmol product/min/nmol protein	7.9 and 7.7	40.1 nmol product/min/nmol protein and 49.8 nmol product/min/nmol protein	5.1 nmol product/min/nmol protein and 6.5 nmol product/min/nmol protein	4.5 nmol product/min/nmol protein and 5.2 nmol product/min/nmol protein	strikingly altered testosterone hydroxylase metabolite profile	–
M1: CYP3A4 protein variant G56D (g.6004G>A, exon 3) [Mutant M1]	–	–	<0.1, <0.1 nmol product/min/nmol protein	5.1 nmol product/min/nmol protein and 4.8 nmol product/min/nmol protein	0.2, 0.2 nmol product/min/nmol protein	5.4 nmol product/min/nmol protein and 6.9 nmol product/min/nmol protein	32.1, nmol product/min/nmol protein and 32.2^b nmol product/min/nmol protein	1.2 nmol product/min/nmol protein and 1.1 nmol product/min/nmol protein	5.6, 5.6	7.8, nmol product/min/nmol protein and 7.9^b nmol product/min/nmol protein	1.4, 1.4 nmol product/min/nmol protein	5.1, 5.1	21.3, nmol product/min/nmol protein and 21.3^b nmol product/min/nmol protein	4.2, 4.2 nmol product/min/nmol protein	–	Neither M1 nor M4 mutant displayed alterations	Testosterone hydroxylase activity relative to wild-type CYP3A4 (CYP3A4 [2]): 53%; Progesterone (steroid) hydroxylase metabolite profile compared with wild-type CYP3A4 (CYP3A4 [3]): Neither M1 nor M4 mutant displayed alterations; 7-BFC debenzylase activity relative to CYP3A4 (CYP3A4 [4]): 137%
M5: CYP3A4 protein variant T363M (g.21867C>T, exon 11) [Mutant M5]	diminishes	–	<0.1, <0.1 nmol product/min/nmol protein	5.1^c nmol product/min/nmol protein	0.1 nmol product/min/nmol protein	3.6 nmol product/min/nmol protein	19.5^c nmol product/min/nmol protein	0.7 nmol product/min/nmol protein	9.8	5.9^c nmol product/min/nmol protein	0.6 nmol product/min/nmol protein	5.4	16.6^c nmol product/min/nmol protein	3.1 nmol product/min/nmol protein	2.9^c nmol product/min/nmol protein	–	Testosterone hydroxylase activity compared with wild-type protein, in words (CYP3A4 [6]): approximately half that of wild-type protein; Progesterone hydroxylase activity compared with wild-type protein, in words (CYP3A4 [7]): approximately half that of wild-type protein; Stability of the protein (consistency of P450 measurements in multiple determinations) (CYP3A4 holoenzyme): some instability; Expression level of P450 holoenzyme relative to CYP3A4 (CYP3A4 holoenzyme; [9]): less than 10%; 7-BFC debenzylase activity compared with wild-type protein, in words (CYP3A4 [8]): approximately half that of wild-type protein
